The labels stand for the following.
B1: LINE1-full (parent)
chain: UACGUAGGUGGUUUUCCCCUGAUAGUGCUAAGGGGGCCUGGAAGUUUGGACUGGGCAGAGCUCAACACAGCGUGGCAAAGUGGCUGUGGCUAGACUGCCUCUCUGGAUUCCUCGUCACUCAGCAGGGCAUCUCUGAGAGAAAUGCC

The variants in the data set derive from B1. Briefly: self-cleavage, relative activity (ratio to wild type); higher = more cleavage; in vitro, sequencing; the parent is a self-cleaving ribozyme.
For the variant UACGUAGGAGGUUUUCCCCUGAUAGUGCUAAGGGGGCCUGGAAGUUUGGACUGGGCAGAGCUCAACACAGCGUGGCAAAGUGGCUGUGGCUAGACUGCCUCUCUGGAUUCCUCGUCACUCAGCAGGGUAUCUCUGAGAGAAAUGCC, the self-cleavage turned out to be 0.9. The result for UACGUAGGAGGUUUUCCCCUGAUAGUGCUAAAGGGGCCUGGAAGUUUGGACUGGGCAGAGCUCAACACAGCGUGGCAAAGUGGCUGUGGCUAGACUGCCUCUCUGGAUUCCUCGUCACUCAGCAGGGCAUCUCUGAGAGAAAUGCC reads 1.73; that for UACGUAGGAGGUUUACCCCUGAUAGUGCUAAGGGGGCCUGGAAGUUUGGACUGGGCAGAGCUCAACACAGCGUGGCAAAGUGGCUGUGGCUAGACUGCCUCUCUGGAUUCCUCGUCACUCAGCAGGGCAUCUCUGAGAGAAAUGCC, 1.07; that for UACGUAGGAGGCUUUCCCCUGAUAGUGCUAAGGGGGCCUGGAAGUUUGGACUGGGCAGAGCUCAACACAGCGUGGCAAAGUGGCUGUGGCUAGACUGCCUCUCUGGAUUCCUCGUCACUCAGCAGGGCAUCUCUGAGAGAAAUGCC, 0.86. In the case of UACGUAGGAGGGUUUCCCCUGAUAGUGCUAAGGGGGCCUGGAAGUUUGGACUGGGCAGAGCUCAACACAGCGUGGCAAAGUGGCUGUGGCUAGACUGCCUCUCUGGAUUCCUCGUCACUCAGCAGGGCAUCUCUGAGAGAAAUGCC it was 0.67; in that of UACGUAGGAGGUUUUCCCCUGAUAGUGCUAAGGGGGCCUGGAAGUUUGGACUGGGCAGAGCUCAACACAGCGUGGCAAAGUGGCUGUGGCUAGACUGCCUCUCUGGAUUCCUCGUCACUCAGCAGAGCAUCUCUGAGAGAAAUGCC, 0.82; in that of UACGUAGGAGGUCUUCCCCUGAUAGUGCUAAGGGGGCCUGGAAGUUUGGACUGGGCAGAGCUCAACACAGCGUGGCAAAGUGGCUGUGGCUAGACUGCCUCUCUGGAUUCCUCGUCACUCAGCAGGGCAUCUCUGAGAGAAAUGCC, 0.81.

For the variant UACGUAGGAGGUAUUCCCCUGAUAGUGCUAAGGGGGCCUGGAAGUUUGGACUGGGCAGAGCUCAACACAGCGUGGCAAAGUGGCUGUGGCUAGACUGCCUCUCUGGAUUCCUCGUCACUCAGCAGGGCAUCUCUGAGAGAAAUGCC, the self-cleavage came out at 1.12. For the variant UACGUAGGAGGUUUUCCCCUGAUAGUGCUAAGGGGGCCUGGAAGUUUGGACUGGGCAGAGCUCAACACAGCGUGGCAAAAUGGCUGUGGCUAGACUGCCUCUCUGGAUUCCUCGUCACUCAGCAGGGCAUCUCUGAGAGAAAUGCC, the self-cleavage was 1.92. In the case of UACGUAGGAGGUUUUCCCCUGAUAGUGCUAAGGGGGCCUGGAAGUUUGGACUGGGCAGAGCUCAACACAGAGUGGCAAAGUGGCUGUGGCUAGACUGCCUCUCUGGAUUCCUCGUCACUCAGCAGGGCAUCUCUGAGAGAAAUGCC it was 0.6. Regarding UACGUAGGAGGUUUUCCCCUGAUAGUGCUAAGGGGGCCUGGAAGUUUGGACUGGGCAGAGCUCAACACAGCGUAGCAAAGUGGCUGUGGCUAGACUGCCUCUCUGGAUUCCUCGUCACUCAGCAGGGCAUCUCUGAGAGAAAUGCC, the self-cleavage came out at 1.09.

Take UACGUAGGAGGUUUUCCCCUGAUAGUGCUAAGGGGGCCUGGAAGUUUGGAAUGGGCAGAGCUCAACACAGCGUGGCAAAGUGGCUGUGGCUAGACUGCCUCUCUGGAUUCCUCGUCACUCAGCAGGGCAUCUCUGAGAGAAAUGCC: the self-cleavage came to 1.47. On to UACGUAGGAGGUUUUCCCCUGAUAGUGCUAAGGGGGCCUGGAAGUUUGGACUGGGCAGAGCUCAACACAGCGUGGCAAAGUGGCUGUGGCUAAACUGCCUCUCUGGAUUCCUCGUCACUCAGCAGGGCAUCUCUGAGAGAAAUGCC, for which the self-cleavage was 0.06.

UACGUAGGAGGUUUUCCCCUGAUAGUGCUAAGGGGGCCUGGAAGUUUGGACUGGGCAGAGCUCAACACAGCGUGGCAAAGUGGCUGUGGCUAUACUGCCUCUCUGGAUUCCUCGUCACUCAGCAGGGCAUCUCUGAGAGAAAUGCC: the self-cleavage was determined as 0.3. On to UACGUAGGAGGUUUUCCCCUGAUAGUGCUAAGGGGGCCUGGAAGUUUGGACUGGGCAGAGUUCAACACAGCGUGGCAAAGUGGCUGUGGCUAGACUGCCUCUCUGGAUUCCUCGUCACUCAGCAGGGCAUCUCUGAGAGAAAUGCC, for which the self-cleavage was determined as 0.02. For UACGUAGGAGGUUUUCCCCUGAUAGUGCUAAGGGGUCCUGGAAGUUUGGACUGGGCAGAGCUCAACACAGCGUGGCAAAGUGGCUGUGGCUAGACUGCCUCUCUGGAUUCCUCGUCACUCAGCAGGGCAUCUCUGAGAGAAAUGCC, the self-cleavage is 0.71. The result for UACGUAGGAGGUUUUCCCCAGAUAGUGCUAAGGGGGCCUGGAAGUUUGGACUGGGCAGAGCUCAACACAGCGUGGCAAAGUGGCUGUGGCUAGACUGCCUCUCUGGAUUCCUCGUCACUCAGCAGGGCAUCUCUGAGAGAAAUGCC reads 1.41. Consider UACGUAGGAGGUUUUCCCCUGAUAGUGCUAAGGGGGCCUGGAAGUUUGGACUGGGCAGAGCUCAACACAGCGUGGCAAAGUGGCUGUGACUAGACUGCCUCUCUGGAUUCCUCGUCACUCAGCAGGGCAUCUCUGAGAGAAAUGCC, for which the self-cleavage is 0.1. As to UACGUAGGAGGUUUUCCCCUGAUAGUGCUAAGGGGGCCUGGAAGUUUGGACUAGGCAGAGCUCAACACAGCGUGGCAAAGUGGCUGUGGCUAGACUGCCUCUCUGGAUUCCUCGUCACUCAGCAGGGCAUCUCUGAGAGAAAUGCC, the self-cleavage came out at 1.53. As to UACGUAGGAGGUUUUCCGCUGAUAGUGCUAAGGGGGCCUGGAAGUUUGGACUGGGCAGAGCUCAACACAGCGUGGCAAAGUGGCUGUGGCUAGACUGCCUCUCUGGAUUCCUCGUCACUCAGCAGGGCAUCUCUGAGAGAAAUGCC, the self-cleavage turned out to be 1.1. On to UACGUAGGAGGUUUUCCACUGAUAGUGCUAAGGGGGCCUGGAAGUUUGGACUGGGCAGAGCUCAACACAGCGUGGCAAAGUGGCUGUGGCUAGACUGCCUCUCUGGAUUCCUCGUCACUCAGCAGGGCAUCUCUGAGAGAAAUGCC, for which the self-cleavage is 1.09.

For UACGUAGGAGGUUUUCCCCUGAUAGUGCUAAGGGGGCCUGGAAGUUUGGACUGGGCAGAGCUCAACACAGCGUGGCAAAGUGGCUGUGGUUAGACUGCCUCUCUGGAUUCCUCGUCACUCAGCAGGGCAUCUCUGAGAGAAAUGCC, the self-cleavage is 0. With UACGUAGGAGGUUUUCCCCUGAUAGUGCUAAGGGGGCCUGGAAGUUUGGACUGGGCAGAGCUCAACACAGCGUGGCAAAGUGGCUGUGGAUAGACUGCCUCUCUGGAUUCCUCGUCACUCAGCAGGGCAUCUCUGAGAGAAAUGCC, the self-cleavage is 0.04. In the case of UACGUAGGAGGUUUUCCCCUGAUAGUGCUAAGGGGGCCUGGAAGUUUGGACUGGCCAGAGCUCAACACAGCGUGGCAAAGUGGCUGUGGCUAGACUGCCUCUCUGGAUUCCUCGUCACUCAGCAGGGCAUCUCUGAGAGAAAUGCC it was 0.09; in that of UACGUAGGAGGUUUUCCCCUGAUAGUGCUAAGGGGGCCUGGAAGUUUGGACUGGGCAGAGCUCAACACAGCGUGGCAAAGUGGCUGUGGCUAGACUGCCUCUCUGGAUUCCUCGUCACUCAGCAGGUCAUCUCUGAGAGAAAUGCC, 1.92; in that of UACGUAGGAGGUUUUCCCCUGAUAGUGCUAAGGGGGCCUGGAAGUUUGGACUGGGCAGAGCUCAACACAGCGUGGCAAAGUGGCUGUGGCUAGACUGCCUCUCUAGAUUCCUCGUCACUCAGCAGGGCAUCUCUGAGAGAAAUGCC, 1.35. In the case of UACGUAGGAGGUUUUCCCCUGAUAGUGCUAAGGGCGCCUGGAAGUUUGGACUGGGCAGAGCUCAACACAGCGUGGCAAAGUGGCUGUGGCUAGACUGCCUCUCUGGAUUCCUCGUCACUCAGCAGGGCAUCUCUGAGAGAAAUGCC, the self-cleavage worked out at 1.87.

For the variant UACGUAGGAGGUUUUCCCCUGAUAGUGCUAAGGGAGCCUGGAAGUUUGGACUGGGCAGAGCUCAACACAGCGUGGCAAAGUGGCUGUGGCUAGACUGCCUCUCUGGAUUCCUCGUCACUCAGCAGGGCAUCUCUGAGAGAAAUGCC, the self-cleavage amounted to 1.09. In the case of UACGUAGGAGGUUUUCCCCUGAUAGUGCUAAGGGGGCCUGGAAGUUUGGACUGGGCAGAGCUCAACACACCGUGGCAAAGUGGCUGUGGCUAGACUGCCUCUCUGGAUUCCUCGUCACUCAGCAGGGCAUCUCUGAGAGAAAUGCC, the self-cleavage was 0.3. UACGUAGGAGGUUUUCCCCUGAUAGUGCUAAGGGGGCCUGGAAGUUUGGACUGGGCAGAGCUCAACACAGCGUGGCAAAGUGGCUGUGGCUAGACUGCCUCUCUGGAUUCCUCGUCACUCAGCAGGGCAUCUCUGAGAGAAAUGUC: the self-cleavage worked out at 1.64. The result for UACGUAGGAGGUUUUCCCCUGAUAGUACUAAGGGGGCCUGGAAGUUUGGACUGGGCAGAGCUCAACACAGCGUGGCAAAGUGGCUGUGGCUAGACUGCCUCUCUGGAUUCCUCGUCACUCAGCAGGGCAUCUCUGAGAGAAAUGCC reads 0.81; that for UACGUAGGAGGUUAUCCCCUGAUAGUGCUAAGGGGGCCUGGAAGUUUGGACUGGGCAGAGCUCAACACAGCGUGGCAAAGUGGCUGUGGCUAGACUGCCUCUCUGGAUUCCUCGUCACUCAGCAGGGCAUCUCUGAGAGAAAUGCC, 1.03; that for UACGUAGGAGGUUUUCCCCUGAAAGUGCUAAGGGGGCCUGGAAGUUUGGACUGGGCAGAGCUCAACACAGCGUGGCAAAGUGGCUGUGGCUAGACUGCCUCUCUGGAUUCCUCGUCACUCAGCAGGGCAUCUCUGAGAGAAAUGCC, 0.36. As for UACGUAGGAGGUUUUCCCCUGAUAGUGCUAAGGGGGCCUGGAAGUUUGGACUGGGCAGAGCUCAACACAGCGUGGCAAAGUGGCUGUGGCUAGACUGCCUCUCUGGAUUCCUUGUCACUCAGCAGGGCAUCUCUGAGAGAAAUGCC, the self-cleavage is 0.97.

For UACGUAGGAGGUUUUCCCCUGAUAGUGCUAAGGGGGCCUGGAAGUUUGGACUGGGCAGAGCUCAACACAGCGUGGCAAAGUGGCUGUGGCUAGACUGCCUCUCUGGAUUCCUAGUCACUCAGCAGGGCAUCUCUGAGAGAAAUGCC, the self-cleavage turned out to be 0.39.

As for UACGUAGGAGGUUUUCCCCUGAUAGUGCUAAGGGGGCCUGGAAGUUUGGACUGGGCAGAGCUCAACACAGCAUGGCAAAGUGGCUGUGGCUAGACUGCCUCUCUGGAUUCCUCGUCACUCAGCAGGGCAUCUCUGAGAGAAAUGCC, the self-cleavage turned out to be 0.81. Regarding UACGUAGGAGGUUUUCCCCUGAUAGUGCUAAGGGGGUCUGGAAGUUUGGACUGGGCAGAGCUCAACACAGCGUGGCAAAGUGGCUGUGGCUAGACUGCCUCUCUGGAUUCCUCGUCACUCAGCAGGGCAUCUCUGAGAGAAAUGCC, the self-cleavage was found to be 0.63. As for UACGUAGGAGGUUUUCCCCUGAUAGUGCUAAGGGGGCCUGGAAGUUUGGACUGGGCAGAGCUCAACACAGCGUGGCAAAGUGGCUGUGGCUAGACUGCCUCUCUGGAUUCCUCCUCACUCAGCAGGGCAUCUCUGAGAGAAAUGCC, the self-cleavage was 0.61. As to UACGUAGGAGGUUUUCCCCUGAUAGUGCUAAGGGGGCCUGGAAGUUUGGACUGGGCAGAGCUCAACACAGCGUGGCAAAGUGGCUGUGGCUAGACUGCAUCUCUGGAUUCCUCGUCACUCAGCAGGGCAUCUCUGAGAGAAAUGCC, the self-cleavage was 0.67.
